Measurements: publication doi:10.1101/2020.11.27.401307

T1: LARP6C La-module (Arabidopsis thaliana, UniProt Q9LHL3 137-332)
T1 sequence: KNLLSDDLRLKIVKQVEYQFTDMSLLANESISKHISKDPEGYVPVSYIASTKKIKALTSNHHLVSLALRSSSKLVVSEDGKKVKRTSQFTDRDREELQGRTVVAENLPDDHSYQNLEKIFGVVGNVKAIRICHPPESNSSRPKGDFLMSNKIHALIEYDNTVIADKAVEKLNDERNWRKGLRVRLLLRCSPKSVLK


Key:
LARP6C La-module [1] = target: T1, LARP6C La-module; test: ITC
LARP6C La-module [2] = target: T1, LARP6C La-module; test: EMSA
LARP6C La-module [3] = target: T1, LARP6C La-module; test: EMSA; remark: listed apart in the source
LARP6C La-module [4] = target: T1, LARP6C La-module; test: EMSA; remark: listed apart in the source

Binder	binding result (LARP6C La-module [1])	Kd (LARP6C La-module [1])	Kd (LARP6C La-module [2])	Kd (LARP6C La-module [3])	other results
CCUCUCCCCCCCUCCCCCCUC (ssRNA) [B3]	no binding				
CUUCUUUCUUUCUUUUUUGUU (ssRNA) [B1]		2.8 µM	0.8 ± 0.1 µM	3.5 ± 0.3 µM	
UCUCUCUGUUUCUUAUUCAUC (ssRNA) [B2]		3.7 µM	1.9 ± 0.3 µM	5.6 ± 0.2 µM	
GAGAGAGGAGAAGAA (ssRNA) [A2]	no binding				
UUUUUUUUUUUUUUUUUUUU (ssRNA) [oligo(U20)]					binding result (LARP6C La-module [4]): binds
AAAAAAGAAGAAAAA (ssRNA) [A1]	no binding				
